This data set is described as follows: Drug dissociation test: polysaccharide derivative in buffer solution, 36°C, 1 week, HPLC. The format is physicochemical. The protocol: In the examples relating to drug dissociation test, the drug dissociation ratio was evaluated as described below.
Sodium dihydrogen phosphate dihydrate (780 mg (5.0 mmol)) was dissolved in 500 mL of distilled water to give a liquid A. Separately, disodium hydrogen phosphate dodecahydrate (1.79 g (5.0 mmol)) was dissolved in 500 mL of distilled water to give a liquid B. By mixing the liquid A and liquid B at ratio of 2:3, a phosphate buffer solution of pH 7.5 was prepared.
0.62 g (10 mmol) of boric acid and 0.75 g (10 mmol) of potassium chloride were weighed and dissolved in 500 mL of distilled water to give a liquid C. Separately, by diluting 0.1 N sodium hydroxide solution with distilled water (×10 dilution), a liquid D was prepared.
50 mL of the liquid C and 7 mL of the liquid D were added to a 100 mL mess flask, and according to dilution to 100 mL with distilled water, a borate buffer solution of pH 8.0 was prepared. Furthermore, 50 mL of the liquid C and 40 mL of the liquid D were added to a 100 mL mess flask, and according to mess-up to 100 mL with distilled water, a borate buffer solution of pH 9.0 was prepared.
Each polysaccharide derivative obtained from above was dissolved in a buffer solution at each pH so as to have a concentration of 5 mg/10 mL, and heated for 1 week in an incubator at 36° C. Then, the drug dissociation ratio during the incubation was evaluated every 24 hours by liquid chromatography (HPLC).
The evaluation was performed by measuring the ratio between the drug amount remained in a polysaccharide derivative and the dissociated drug amount according to use of a size exclusion chromatography column (manufactured by TOSOH, TSKgel α-6000, 7.8 mmI.D.×30 cm).
Detailed conditions for the liquid chromatography are as follows.
Analysis time: 40 minutes
Solution for elution: acetonitrile (for HPLC):physiological saline=1:2
Detector: UV detector (240 nm)

Values joined by “and” are separate entries in the source; they are usually repeats but may differ in a detail not shown here. Equal entries are not always repeated.

Consider “Carboxymethyl Cellulose (500) Introduced with 21-β-Alanyl-Budesonide [Compound xxa]”, for which the “Dissociation ratio (%/day)” value (pH 7.4, 36°C) was 2.8 %/day and 2.6 %/day; the “Dissociation ratio (%/day)” value (pH 7.5, 36°C) was 2.8 %/day; the “Dissociation ratio (%/day)” value (pH 8.0, 36°C) is 5.7 %/day and 5.5 %/day. Further, the drug dissociation ratio was 2.0% (pH 7.5, 36°C, day 0); 4.8% (pH 7.5, 36°C, day 1); 7.4% (pH 7.5, 36°C, day 2); 10.0% (pH 7.5, 36°C, day 3); 12.6% (pH 7.5, 36°C, day 4); 15.0% (pH 7.5, 36°C, day 5). For the same substance, the drug dissociation ratio is recorded as 17.4% (pH 7.5, 36°C, day 6); 19.8% (pH 7.5, 36°C, day 7); 2.7% (pH 8.0, 36°C, day 0); 9.9% (pH 8.0, 36°C, day 1); 16.4% (pH 8.0, 36°C, day 2); 22.1% (pH 8.0, 36°C, day 3). The drug dissociation ratio (pH 8.0, 36°C, day 4) was determined as 27.1%; the drug dissociation ratio (pH 8.0, 36°C, day 5) was 31.7%; the drug dissociation ratio (pH 8.0, 36°C, day 6) came to 35.9%; the drug dissociation ratio (pH 8.0, 36°C, day 7) is recorded as 39.6%.
Turning to “Chondroitin Sulfate Introduced with 11-(2-Fluoro-β-Alanyl)-Propionic Acid Fluticasone [Compound viii]”, the “Dissociation ratio (%/day)” value reads like this: (pH 7.4, 36°C) 3.1 %/day; (pH 8.0, 36°C) 10.1 %/day. Further, the drug dissociation ratio reads like this: (pH 7.4, 36°C, day 0) 0.1%; (pH 7.4, 36°C, day 1) 7.9%; (pH 7.4, 36°C, day 2) 4.9%; (pH 7.4, 36°C, day 3) 12.7%; (pH 7.4, 36°C, day 4) 8.4%; (pH 7.4, 36°C, day 5) 15.2%. The drug dissociation ratio turned out to be 14.3% (pH 7.4, 36°C, day 6); 21.8% (pH 7.4, 36°C, day 7); 0.3% (pH 8.0, 36°C, day 0); 14.8% (pH 8.0, 36°C, day 1); 26.3% (pH 8.0, 36°C, day 2); 27.1% (pH 8.0, 36°C, day 3). Further, the drug dissociation ratio is, setting by setting: (pH 8.0, 36°C, day 4) 29.8%; (pH 8.0, 36°C, day 5) 64.5%; (pH 8.0, 36°C, day 6) 47.4%; (pH 8.0, 36°C, day 7) 70.9%.
For “Chondroitin Sulfate Introduced with 11-Glycyl-Propionic Acid Fluticasone [Compound xvii]”, the “Dissociation ratio (%/day)” value runs as follows: (pH 7.4, phosphate buffer solution/acetonitrile (1:1), 36°C) 0.4 %/day; (pH 8.0, borate buffer solution/acetonitrile (1:1), 36°C) 3.3 %/day. In addition, the drug dissociation ratio worked out at 0.0% (pH 7.4, phosphate buffer solution/acetonitrile (1:1), 36°C, day 0); 0.3% (pH 7.4, phosphate buffer solution/acetonitrile (1:1), 36°C, day 1); 0.7% (pH 7.4, phosphate buffer solution/acetonitrile (1:1), 36°C, day 2); 1.3% (pH 7.4, phosphate buffer solution/acetonitrile (1:1), 36°C, day 3); 1.9% (pH 7.4, phosphate buffer solution/acetonitrile (1:1), 36°C, day 4); 2.3% (pH 7.4, phosphate buffer solution/acetonitrile (1:1), 36°C, day 5). Also, the drug dissociation ratio worked out at 2.5% (pH 7.4, phosphate buffer solution/acetonitrile (1:1), 36°C, day 6); 2.9% (pH 7.4, phosphate buffer solution/acetonitrile (1:1), 36°C, day 7); 0.0% (pH 8.0, borate buffer solution/acetonitrile (1:1), 36°C, day 0); 4.6% (pH 8.0, borate buffer solution/acetonitrile (1:1), 36°C, day 1); 10.1% (pH 8.0, borate buffer solution/acetonitrile (1:1), 36°C, day 2); 14.1% (pH 8.0, borate buffer solution/acetonitrile (1:1), 36°C, day 3). Besides, the drug dissociation ratio came to 17.8% (pH 8.0, borate buffer solution/acetonitrile (1:1), 36°C, day 4); 18.9% (pH 8.0, borate buffer solution/acetonitrile (1:1), 36°C, day 5); 20.0% (pH 8.0, borate buffer solution/acetonitrile (1:1), 36°C, day 6); 22.8% (pH 8.0, borate buffer solution/acetonitrile (1:1), 36°C, day 7).
With “Chondroitin Sulfate Introduced with 11-β-Alanyl-Propionic Acid Fluticasone [Compound vii]”, the “Dissociation ratio (%/day)” value is, setting by setting: (pH 7.4, 36°C) 0.1 %/day; (pH 8.0, 36°C) 0.2 %/day. For the same substance, the drug dissociation ratio was 0.0% (pH 7.4, 36°C, day 0); 0.0% (pH 7.4, 36°C, day 1); 0.0% (pH 7.4, 36°C, day 2); 0.2% (pH 7.4, 36°C, day 3); 0.4% (pH 7.4, 36°C, day 4); 0.4% (pH 7.4, 36°C, day 5). Moreover, the drug dissociation ratio amounted to 0.4% (pH 7.4, 36°C, day 6); 0.4% (pH 7.4, 36°C, day 7); 0.0% (pH 8.0, 36°C, day 0); 0.3% (pH 8.0, 36°C, day 1); 0.6% (pH 8.0, 36°C, day 2); 0.7% (pH 8.0, 36°C, day 3). Also, the drug dissociation ratio (pH 8.0, 36°C, day 4) stood at 0.7%; the drug dissociation ratio (pH 8.0, 36°C, day 5) amounted to 1.0%; the drug dissociation ratio (pH 8.0, 36°C, day 6) is given as 1.0%; the drug dissociation ratio (pH 8.0, 36°C, day 7) turned out to be 1.1%.
Turning to “Chondroitin Sulfate Introduced with 21-β-Alanyl-Budesonide (10 kDa) [Compound vc]”, the “Dissociation ratio (%/day)” value (pH 7.4, 36°C) is listed as 1.2 %/day and the “Dissociation ratio (%/day)” value (pH 8.0, 36°C) was 2.0 %/day. The drug dissociation ratio amounted to 0.4% (pH 7.4, 36°C, day 0); 1.6% (pH 7.4, 36°C, day 1); 2.8% (pH 7.4, 36°C, day 2); 3.7% (pH 7.4, 36°C, day 3); 4.8% (pH 7.4, 36°C, day 4); 5.3% (pH 7.4, 36°C, day 5). Moreover, the drug dissociation ratio by setting is: (pH 7.4, 36°C, day 6) 6.8%; (pH 7.4, 36°C, day 7) 8.5%; (pH 8.0, 36°C, day 0) 0.1%; (pH 8.0, 36°C, day 1) 1.9%; (pH 8.0, 36°C, day 2) 2.4%; (pH 8.0, 36°C, day 3) 3.9%. The drug dissociation ratio was determined as 7.6% (pH 8.0, 36°C, day 4); 9.7% (pH 8.0, 36°C, day 5); 11.2% (pH 8.0, 36°C, day 6); 14.0% (pH 8.0, 36°C, day 7).
As to “Chondroitin Sulfate Introduced with 21-β-Alanyl-Budesonide (20 kDa) [Compound vb]”, the “Dissociation ratio (%/day)” value (pH 7.4, 36°C) was 0.9 %/day and the “Dissociation ratio (%/day)” value (pH 8.0, 36°C) is on record as 1.5 %/day. The drug dissociation ratio is reported as 0.3% (pH 7.4, 36°C, day 0); 1.2% (pH 7.4, 36°C, day 1); 2.4% (pH 7.4, 36°C, day 2); 3.0% (pH 7.4, 36°C, day 3); 3.6% (pH 7.4, 36°C, day 4); 4.0% (pH 7.4, 36°C, day 5). For the same substance, the drug dissociation ratio (pH 7.4, 36°C, day 6) amounted to 5.1%; the drug dissociation ratio (pH 7.4, 36°C, day 7) came out at 6.4%; the drug dissociation ratio (pH 8.0, 36°C, day 0) was 0.2%; the drug dissociation ratio (pH 8.0, 36°C, day 1) is on record as 1.2%; the drug dissociation ratio (pH 8.0, 36°C, day 2) turned out to be 1.7%; the drug dissociation ratio (pH 8.0, 36°C, day 3) turned out to be 2.9%. In addition, the drug dissociation ratio reads like this: (pH 8.0, 36°C, day 4) 5.5%; (pH 8.0, 36°C, day 5) 7.6%; (pH 8.0, 36°C, day 6) 8.9%; (pH 8.0, 36°C, day 7) 10.8%.
Take “Chondroitin Sulfate Introduced with Seratrodast [Compound xxiii]”: the “Dissociation ratio (%/day)” value (pH 7.4, 36°C) was found to be 0.1 %/day and the “Dissociation ratio (%/day)” value (pH 8.0, 36°C) stood at 0.2 %/day. Besides, the drug dissociation ratio (pH 7.4, 36°C, day 0) is reported as 0.0%; the drug dissociation ratio (pH 7.4, 36°C, day 1) is 0.0%; the drug dissociation ratio (pH 7.4, 36°C, day 2) was 0.2%; the drug dissociation ratio (pH 7.4, 36°C, day 3) is recorded as 0.3%; the drug dissociation ratio (pH 7.4, 36°C, day 4) was 0.3%; the drug dissociation ratio (pH 7.4, 36°C, day 5) came out at 0.4%. Further, the drug dissociation ratio came to 0.5% (pH 7.4, 36°C, day 6); 0.6% (pH 7.4, 36°C, day 7); 0.0% (pH 8.0, 36°C, day 0); 0.2% (pH 8.0, 36°C, day 1); 0.4% (pH 8.0, 36°C, day 2); 0.6% (pH 8.0, 36°C, day 3). Moreover, the drug dissociation ratio is 0.7% (pH 8.0, 36°C, day 4); 0.9% (pH 8.0, 36°C, day 5); 1.1% (pH 8.0, 36°C, day 6); 1.3% (pH 8.0, 36°C, day 7).
